Changes are numbered by the printed parent chain. Names and notes keep the numbering of the source.
T1: His9-hMSR1 (human MSR1 extracellular domain) (Homo sapiens, UniProt P21757)
T1 construct: human MSR1 extracellular domain expressed with a N-terminal nonahistidine tag; His9 (nonahistidine) (N); purchased R&D Systems 2708-MS
T1 sequence (P21757 77-451 limits assumed): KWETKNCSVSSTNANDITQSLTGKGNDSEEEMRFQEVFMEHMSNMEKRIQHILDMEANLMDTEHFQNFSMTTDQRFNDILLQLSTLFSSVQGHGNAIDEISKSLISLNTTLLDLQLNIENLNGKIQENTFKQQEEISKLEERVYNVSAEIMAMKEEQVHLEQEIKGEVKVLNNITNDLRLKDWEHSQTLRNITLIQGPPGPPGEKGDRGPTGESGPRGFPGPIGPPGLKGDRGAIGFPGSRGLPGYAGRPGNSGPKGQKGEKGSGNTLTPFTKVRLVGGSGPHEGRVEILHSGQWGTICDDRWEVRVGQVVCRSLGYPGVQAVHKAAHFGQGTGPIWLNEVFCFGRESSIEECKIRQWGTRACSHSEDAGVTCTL

T2: MSR1-mediated Dil-AcLDL uptake in HEK293.Myc.hMSR1 cells (Homo sapiens, UniProt P21757)
T2 construct: expressed in transfected cells; host or cells: HEK293 (lentiviral transduction, hygromycin selection)
T2 sequence (P21757 1-451): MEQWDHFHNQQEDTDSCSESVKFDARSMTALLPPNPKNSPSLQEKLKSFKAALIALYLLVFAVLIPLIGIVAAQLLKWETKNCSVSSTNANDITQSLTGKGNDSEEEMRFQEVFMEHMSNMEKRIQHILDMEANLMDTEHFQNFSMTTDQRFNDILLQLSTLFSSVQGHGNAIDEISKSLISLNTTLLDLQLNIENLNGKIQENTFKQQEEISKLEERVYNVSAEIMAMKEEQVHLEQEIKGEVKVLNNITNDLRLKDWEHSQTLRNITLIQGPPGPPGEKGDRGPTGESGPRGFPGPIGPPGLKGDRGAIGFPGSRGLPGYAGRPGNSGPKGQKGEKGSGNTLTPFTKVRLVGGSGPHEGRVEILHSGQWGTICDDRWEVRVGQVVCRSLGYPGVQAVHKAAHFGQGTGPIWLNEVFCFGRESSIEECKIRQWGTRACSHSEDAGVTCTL

B1: H1H21234N-N297Q-LP13 (conjugate)
VH: QVQLQESGPGLVKPSETLSLTCTVTGGSISRNYWSWIRQPPGKGLEWIGYIYYSGSIDYNPSLKSRVTISVDTSKNQFSLKLSSMTAADTAVYYCARDRWNWKYGMDVWGQGTTVIVSS
VL: EIVLTQSPGTLSLSPGERATLSCRASQTVRNNYLAWYHQKPGQAPRLLIYGASSRATGIPDRFSGSGSGTDFTLTISRLEPEDFTVYYCHQYGNSPWTFGQGTKMEIKR
B2: H1H21227N-N297Q: "modified versions of 21227N (H1H21227N-N297Q and H1H21227N-N297D)"; anti-MSR1 antibody "with a N297Q single point mutation" (antibody, V domains shown)
VH: QVQLVQSGAEVKKPGASVKVSCKVSGYTLTELSIHWVRQVPGKGLEWMGGFDPEEGETIFAQEFRDRVTLTEDTSPDTAYMELSSLKSEDAAVYYCTTPRYCNNGICYDYWGQGTLVTVSS
VL: DIQMTQSPSSLSASVGDRVTITCRASQSISNYLNWYQQKPGKAPKLLIYTASSLQSGVPSRFSGSGSGTDFTLTISSLQTEDFATYYCQQSYSNFPITFGQGTRLEIKR
B3: H1H27729P-N297Q: anti-MSR1 antibody "made with an N297Q single point mutation in human Fcγ portion" (antibody, V domains shown)
VH: QVQLVESGGGLVKPGGSLRLSCAASGFIFSDYYMSWIRQAPGKGLEWVSYISSSGTTIYGDSVKGRFTMSRDNAKNSLYLQMNSLRAEDTAVYYCARNYALFDYWGQGTLVTVSS
VL: DIQMTQSPSSLSASVGDRVTITCQASQDISKYLNWYQQKPGKAPKLLIYYTSNLETGVPSRFSGSGSGTDFTFTISSLQPEDIATYYCHQSDYLPFTFGPGTKVDIKR
B4: H1H27731P-N297Q: one of "Twelve anti-MSR1 antibodies"; "made with an N297Q single point mutation in human Fcγ portion" (antibody, V domains shown)
VH: QLQLQESGPGLVKPSETLSLTCTVSGGSISRISYYWGWIRQPPGKGLEWIGSIYDSGSTYYNPSLKSRVTISIDTSKNQFSLKLSSVTAADTAVYYCVRYSSSSAFAFDYWGQGTLVTVSS
VL: DIQMTQSPSSVSASVGDRVTITCRASQGISSWLAWYQQKPGKAPKLLIYAASSLQSGVPSRFSGSGSGTDFTLTISSLQPEDFATYYCQQANSFPFTFGPGTKVDIKR
B5: H1H27747P-N297Q (antibody, V domains shown)
VH: QVQLVESGGAVVQPGRSLRLSCAASGFTFSYYGMHWVRQAPGKGLEWVAVISYDGSKKYYADSVKGRFTISRDNSKNTLYLQMNSLRAEDTAVYYCAKDLTVDFYYGMDVWGQGTTVTVSS
VL: B4 VL with A51T, V58A, Y87F, F96Y, P100Q, V104L, D105E
B6: H1H27754P-N297Q: one of "Twelve anti-MSR1 antibodies"; "made with an N297Q single point mutation in human Fcγ portion" (antibody, V domains shown)
VH: EVQLVESGGGLVQPGGSLRLSCAASGFTFRTYAMTWVRQAPGKGLDWVSAITGDGGNTYYADSVKGRFTISRDNSKNTLYLQMNSLRAEDTAIYYCAKDQRFSFALYYFDYWGQGTLVTVSS
VL: B4 VL with K42N, S52F, S93N, F96W, P100Q, D105E
B7: H1H21231N: "anti-MSR1 antibodies ... (21227N, 21231N, 21234N) were produced with the original human Fcγ portion"; "H1H" = human IgG1 Fc (antibody, V domains shown)
VH: EVQLVESGGGLVQPGGSLRLSCAASGFTFSDHYMDWVRQAPGKGLEWVGRTRNKANSHTTEYTASVTGRFTISRDDSRNSLYLQMNSLKTEDTAVYYCVRAGIIGTLFDYWGQGTLVTVSS
VL: B2 VL with S7F, N31S, Y32F, Y36F, L46F, T50A, T80P, N94S, F95P
modifications: human IgG1 Fc
notes: "anti-MSR1 antibodies ; (21227N, 21231N, 21234N) were produced with the original human Fcγ portion"; "H1H" = human IgG1 Fc
B8: H1H21227N: "anti-MSR1 antibodies ... (21227N, 21231N, 21234N) were produced with the original human Fcγ portion"; "H1H" = human IgG1 Fc (antibody, V domains shown)
VH: B2 VH
VL: B2 VL
modifications: human IgG1 Fc
notes: as for B7

Assays:
[1] = target: T1, His9-hMSR1 (human MSR1 extracellular domain); assay: Biacore T200 surface plasmon resonance binding kinetics of anti-MSR1 antibody-drug conjugates and parental antibodies; settings: 25° C.; for kd: * = no dissociation observed, kd manually fixed at 1.00E−05
Procedure: The MSR1 antibodies disclosed herein were conjugated to various liver X receptor (LXR) payloads or various steroid payloads. This example describes how equilibrium dissociation constant (KD) values for human MSR1 reagents binding to human anti-MSR1 antibody-drug conjugates and their corresponding unconjugated parental antibodies were determined using a real-time surface plasmon resonance-based Biacore T200 biosensor.
All binding studies were performed in 10 mM HEPES, 300 mM NaCl, 3 mM EDTA, and 0.05% v/v Surfactant Tween-20, pH 7.4 (HBS-ET) running buffer at 25° C. The Biacore CM4 sensor chip surface was first derivatized by amine coupling with the goat anti-human Fcγ specific polyclonal antibody (Jackson ImmunoResearch Laboratories, Cat #BR-1008-39) to capture anti-MSR1 monoclonal antibodies. Binding studies were performed on human MSR1 extracellular domain expressed with a N-terminal nonahistidine tag (His9-hMSR1; R&D Systems, Cat #2708-MS).
The association rate (ka) and dissociation rate (kd) were determined by fitting the real-time binding sensorgrams to a 1:1 binding model with mass transport limitation using Scrubber 2.0c curve-fitting software. Binding dissociation equilibrium constant (KD) and dissociative half-life (t½) were calculated from the kinetic rates as: […]
Binding kinetics parameters for His9-hMSR1 binding to different anti-MSR1 antibody-LXR ADCs and their unconjugated parental antibodies at 25° C. are shown in Table 19. “LP1” represents a linker-payload for which the payload structure is provided in Example 11.
The binding studies were repeated with anti-MSR1 antibody H1H21234-N297Q and steroid linker payloads (LPs). “LP3” represents a linker-payload for which the structure is provided in Example 23, and “LP13” represents a linker-payload for which the structure is provided in Example 24.

[2] = test system: B16F10.9 cells (MSR1 negative); assay: Flow cytometry binding, MSR1 negative cells; format: cell-based, mouse; settings: 10 μg/mL antibody
Procedure: Relative cell surface binding of the anti-MSR1 antibodies to mouse MSR1 expressing cells was determined by flow cytometry using MSR1 positive RAW264.7 cells (ATCC, Catalog #TIB-71) and MSR1 negative B16F10.9 cells (Lin et al. 1998. PNAS 95:8829-8834). For the assay, cells were plated in PBS without calcium and magnesium (VWR Cat #45000-446) and 2% FBS (Saradigm Cat #1500-500) (Staining Buffer) in 96 well V-bottom plates (Axygen Scientific, Cat #P-96-450-V-C-S). To block binding to Fc receptors, RAW264.7 cells were incubated for 30 minutes at 4° C. with 500 μg/mL mouse IgG (Jackson ImmunoResearch, Cat #015-000-003) diluted in staining buffer, while B16F10.9 cells remained in staining buffer. Following Fc receptor blocking, 10 μg/mL of anti-MSR1 antibodies or an isotype control antibody were added to the cells and were subsequently incubated for 30 minutes on ice. For a positive control, a commercial anti-mouse MSR1 (Sino Biological, Cat #50129-R004) antibody was used, while a rabbit IgG antibody (Thermo Scientific, Cat #26102) was used as a negative control. […] Cells were subsequently washed and fixed using a 50% solution of Cytofix (BD Biosciences, Cat #554655) diluted in PBS. […] The signal to noise (S/N) was determined by calculating the ratio of the anti-MSR1 antibodies or the control antibodies MFI to the unstained sample MFI (Table 11).

[3] = target: T2, MSR1-mediated Dil-AcLDL uptake in HEK293.Myc.hMSR1 cells; assay: Ligand uptake assay, Dil-AcLDL; format: cell-based; settings: 10 μg/mL Dil-AcLDL; for IC50: read-out: Dil-Acetylated LDL IC50; for Dil-Acetylated LDL % Inhibition: maximum inhibition
Procedure: A bioassay was generated to assess the ability of the exemplary anti-MSR1 antibodies to regulate the uptake of certain MSR1 ligands.
Generation of MSR1-expressing cell lines for assay. […] The resulting cell line, referred to here as “HEK293.Myc.hMSR1”, was selected and maintained in DMEM containing 10% FIBS, NEAA, penicillin/streptomycin, L-glutamine, and 100 μg/mL hygromycin.
Ligand uptake assay. […] After 30 minutes, either oxidized or acetylated low-density lipoprotein (LDL) labeled with 1,1′dioctadecyl-3,3,3′,3′-tetramethylindocarbocyanine perchlorate (referred to as “Dil-OxLDL” or “Dil-AcLDL,” respectively) was added to the cells at a constant concentration of 10 μg/mL. […] Results were analyzed using nonlinear regression (4-parameter logistics) with the Prism 7 program to obtain EC50 and IC50 values. The percentage of inhibition was calculated with the Relative Fluorescent Unit (RFU) values by using the following equation: […]
In the equation, “RFUBaseline” is the fluorescence value from the cells treated with 10 μg/mL ligand without antibodies, “RFUInhibition” is the minimum fluorescence value with for a particular antibody with 10 μg/mL ligand, and “RFUBackground” is the fluorescence value from cells without any ligand or antibodies.

[4] = Table 19, antibody-LXR ADCs and unconjugated antibodies

Row | Molecule | B16F10.9 MFI [2] | IC50 [3] [nM] | Dil-Acetylated LDL % Inhibition [3] [%] | ka [1, 4] [M⁻¹ s⁻¹] | kd ([1]; Table 19) | also measured
1 | B1 | – | – | – | – | – | ka ([1]; Table 20, antibody-steroid ADCs and unconjugated antibody): 400000 M⁻¹ s⁻¹; kd ([1]; Table 20): 1e-05 s⁻¹
2 | B2 | 3287 | 2.4 | 65 | – | – | B16F10.9 S/N [2]: 1
3 | B3 | 3459 | – | – | 105000 | 0.000906 s⁻¹ | –
4 | B4 | 3688 | – | – | 117000 | 1e-05 s⁻¹ | –
5 | B5 | 3875 | – | – | 117000 | 0.000262 s⁻¹ | –
6 | B6 | 4091 | – | – | 200000 | 1.00E−05* s^−1 | –
7 | B7 | – | 3.5 | 63 | – | – | –
8 | B8 | – | 2.1 | 65 | – | – | –

Reference: US12497460B2, “Anti-MSR1 antibodies and methods of use thereof” (REGENERON PHARMACEUTICALS, INC., priority 2018, dated 2025)
